Assay [1] has as its target T1, recombinant human PD-1 (human, UniProt Q15116 25-167).
T1 construct: also called 重组PD-1; 人PD-1
Briefly: SPR, PD-1 fixed on carboxymethyl dextran chip, bispecific 100nM, then Vδ1 heterodimer 100nM. Background: In SPR one partner is held on a chip, and binding of the other changes the refractive index at the surface.

Assay [2] addresses T2, recombinant human OX40 (human, UniProt P43489 29-216).
T2 construct: also called 重组OX40; 人OX40
T2 sequence (looked up): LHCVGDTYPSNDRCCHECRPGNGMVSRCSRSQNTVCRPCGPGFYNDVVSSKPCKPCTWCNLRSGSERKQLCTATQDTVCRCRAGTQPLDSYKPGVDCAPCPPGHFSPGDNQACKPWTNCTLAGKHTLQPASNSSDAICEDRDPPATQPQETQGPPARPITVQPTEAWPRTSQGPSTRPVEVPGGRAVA
Briefly: SPR, OX40 fixed on carboxymethyl dextran chip, bispecific 100nM, then Vδ1 heterodimer 100nM.

For assay [3], the target named is human Vδ1 γδ T cell receptor on cells (skin-, blood- or tumour-derived Vδ1 γδ T cells) (human). Put plainly: cell-based or functional assay.
Chain of human Vδ1 γδ T cell receptor on cells (skin-, blood- or tumour-derived Vδ1 γδ T cells) (human) (A0A1B0GX56 22-115, stated change not applied): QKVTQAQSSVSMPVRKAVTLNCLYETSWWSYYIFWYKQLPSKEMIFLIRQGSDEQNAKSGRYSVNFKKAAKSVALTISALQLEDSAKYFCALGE

T1 sequence (Q15116 25-167 limits assumed): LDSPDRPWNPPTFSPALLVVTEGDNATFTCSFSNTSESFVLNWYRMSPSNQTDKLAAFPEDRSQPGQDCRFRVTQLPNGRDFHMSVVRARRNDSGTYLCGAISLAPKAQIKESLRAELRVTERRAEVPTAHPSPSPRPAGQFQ

B1: 抗Vδ1×PD-1双特异性抗体 (ADT1-4-2×帕博利珠单抗) (bispecific antibody, human IgG1, kappa)
chain 1: EIVLTQSPATLSLSPGERATLSCRASKGVSTSGYSYLHWYQQKPGQAPRLLIYLASYLESGVPARFSGSGSGTDFTLTISSLEPEDFAVYYCQHSRDLPLTFGGGTKVEIKRTVAAPSVFIFPPSDEQLKSGTASVVCLLNNFYPREAKVQWKVDNALQSGNSQESVTEQDSKDSTYSLSSTLTLSKADYEKHKVYACEVTHQGLSSPVTKSFNRGEC
chain 2: not shown
notes: also called 抗Vδ1×抗PD-1
Regarding B1, the binding result in assay [1] was “binds”.

B2: 抗Vδ1×OX40双特异性抗体 (ADT1-4-2×珀伽利珠单抗) (bispecific antibody, human IgG1, kappa)
chain 1: DIQMTQSPPALSASVGDRVTITCRASQDINDWLAWYQHKPGKAPKLLIYDASSLESGVPLRFSGSGSGTEFTLTISSLQPDDFATYYCQQKYSAPQVTFGQGTRLEIKRTVAAPSVFIFPPSDEQLKSGTASVVCLLNNFYPREAKVQWKVDNALQSGNSQESVTEQDSKDSTYSLSSTLTLSKADYEKHKVYACEVTHQGLSSPVTKSFNRGEC
chain 2: not shown
notes: also called 抗Vδ1×抗OX40
With B2, in assay [2], the binding result is “binds”.

B3: ADT1-4 (parent antibody) (antibody, IgG1, V domains shown)
VH: QVQLQQSGPGLVKPSQTLSLTCAISGDSVSSKSAAWNWIRQSPSRGLEWLGRTYYRSKWSTDYAASVKSRITINPDTSKNQLSLQLNSVTPEDTAVYYCARTWSGYVDVWGQGTLVTVSS
VL: DIQMTQSPPALSASVGDRVTITCRASQDINDWLAWYQHKPGKAPKLLIYDASSLESGVPSRFSGSGSGTEFTLTISSLQPDDFATYYCQQSYSTPQVTFGQGTRLEIK
Take B3: the “TCR下调 IC50 (soluble assay)” value in assay [3] is 38.3 nM.

The values are drawn from patent publication CN117999282A (GAMMADELTA THERAPEUTICS LTD, dated 2024).
